Assay results reported in IntAct's records for PubMed 23274085.

B1: Sestrin-2 (Homo sapiens), P58004 (parent)
chain: MIVADSECRAELKDYLRFAPGGVGDSGPGEEQRESRARRGPRGPSAFIPVEEVLREGAESLEQHLGLEALMSSGRVDNLAVVMGLHPDYFTSFWRLHYLLLHTDGPLASSWRHYIAIMAAARHQCSYLVGSHMAEFLQTGGDPEWLLGLHRAPEKLRKLSEINKLLAHRPWLITKEHIQALLKTGEHTWSLAELIQALVLLTHCHSLSSFVFGCGILPEGDADGSPAPQAPTPPSEQSSPPSRDPLNNSGGFESARDVEALMERMQQLQESLLRDEGTSQEEMESRFELEKSESLLVTPSADILEPSPHPDMLCFVEDPTFGYEDFTRRGAQAPPTFRAQDYTWEDHGYSLIQRLYPEGGQLLDEKFQAAYSLTYNTIAMHSGVDTSVLRRAIWNYIHCVFGIRYDDYDYGEVNQLLERNLKVYIKTVACYPEKTTRRMYNLFWRHFRHSEKVHVNLLLLEARMQAALLYALRAITRYMT

Variants of: B1
Conditions: with keap1_human KEAP1, Q14145
Sequence of keap1_human KEAP1, Q14145 (Q14145 whole entry): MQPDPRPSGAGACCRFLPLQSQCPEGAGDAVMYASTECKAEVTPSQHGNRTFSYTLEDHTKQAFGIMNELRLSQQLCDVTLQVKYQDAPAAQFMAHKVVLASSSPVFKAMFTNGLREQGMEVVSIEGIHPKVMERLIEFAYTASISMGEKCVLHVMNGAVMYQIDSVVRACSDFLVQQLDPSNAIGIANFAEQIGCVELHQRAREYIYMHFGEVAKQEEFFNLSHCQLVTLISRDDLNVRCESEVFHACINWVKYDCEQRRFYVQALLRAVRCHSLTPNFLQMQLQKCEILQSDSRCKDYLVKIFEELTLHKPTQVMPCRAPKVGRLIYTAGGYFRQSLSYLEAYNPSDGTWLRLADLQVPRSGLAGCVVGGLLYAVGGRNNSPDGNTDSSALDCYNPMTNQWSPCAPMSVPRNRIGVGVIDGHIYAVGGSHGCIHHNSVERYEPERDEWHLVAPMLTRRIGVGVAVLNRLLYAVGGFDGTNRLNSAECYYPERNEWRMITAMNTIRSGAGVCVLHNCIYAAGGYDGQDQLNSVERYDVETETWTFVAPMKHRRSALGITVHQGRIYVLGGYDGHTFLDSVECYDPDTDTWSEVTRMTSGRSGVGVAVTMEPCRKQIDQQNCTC
MIVADSECRAELKDYLRFAPGGVGDSGPGEEQRESRARRGPRGPSAFIPVEEVLREGAESLEQHLGLEALMSSGRVDNLAVVMGLHPDYFTSFWRLHYLLLHTDGPLASSWRHYIAIMAAARHQSSYLVGSHMAEFLQTGGDPEWLLGLHRAPEKLRKLSEINKLLAHRPWLITKEHIQALLKTGEHTWSLAELIQALVLLTHCHSLSSFVFGCGILPEGDADGSPAPQAPTPPSEQSSPPSRDPLNNSGGFESARDVEALMERMQQLQESLLRDEGTSQEEMESRFELEKSESLLVTPSADILEPSPHPDMLCFVEDPTFGYEDFTRRGAQAPPTFRAQDYTWEDHGYSLIQRLYPEGGQLLDEKFQAAYSLTYNTIAMHSGVDTSVLRRAIWNYIHCVFGIRYDDYDYGEVNQLLERNLKVYIKTVACYPEKTTRRMYNLFWRHFRHSEKVHVNLLLLEARMQAALLYALRAITRYMT [C125S] was tested, and the “effect of a mutation on the interaction” value was “with no effect”.
